# From the supplement of paper PMC10567573
# ± gives the standard deviation.
# Assay: protein stability index of a GFP-peptide fusion (GPS, HEK-293T) (PSI 1-6); higher = more stable
# [1] = treatment: DMSO, c terminus: a fixed tail appended
# [2] = treatment: MLN4924 1 uM, 8 h, c terminus: a fixed tail appended
# 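Also: 24-mer peptide tiles fused after GFP, lentivirally expressed, FACS-sorted into six equal bins by GFP/DsRed ratio, decoded by Illumina sequencing, PSI is the read-weighted mean bin number.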
Sequence,protein stability index [1],protein stability index [2],"protein stability index (treatment: DMSO, c terminus: native)","protein stability index (treatment: MLN4924 1 uM, 8 h, c terminus: native)"
LQYSTQVHTEFTLRNFNSAKDMKK [MATN2],3.73 ± 0.3,4.08 ± 0.32,,
LPWFRTLSWYFLLCVNYFFYGETV [CDS1],3.08 ± 0.14,3.38 ± 0.75,,
ADDFRTKYEHELALRQTVEADVNG [KRT16],5.17 ± 0.38,5.09 ± 0.034,,
PKFKKWCDDYFFIAHRGERRGIGG [CPOX],2.54 ± 0.14,2.56 ± 0.26,,
EHYWEVRYEPDSKAFGVGVAYRSL [FSD1],2.06 ± 0.29,2.25 ± 0.33,,
KLRQMRVEKFIYENHPDVFSDSSM [MYOZ1],2.43 ± 0.17,2.64 ± 0.41,,
ILTEPAQAQKCYRDLALVSRDGMN [INTS3],3.28 ± 0.3,3.24 ± 0.6,,
LQQIADFMTTNVPNVYPAAPQGGM [ADD1],3.3 ± 0.2,3.29 ± 0.17,,
VLERGDSAPATAKENAAAPSPVRA [PALM],5.3 ± 0.23,5.24 ± 0.078,,
ALGHLGNDDSADYQHFLQDCVDGL [DLC1],4.26 ± 0.17,4.28 ± 0.46,,
AAWKGRVLLPETQKRQQLSEDTLT [C22orf31],3.83 ± 0.31,3.84 ± 0.38,,
IAIVSVMVILISIVIFCLETLPEL [KCNA1],2.39 ± 0.25,2.44 ± 0.16,,
EEVPEAYVDIHTGLSGSGVAFVCA [PYCR3],2.76 ± 0.53,2.66 ± 0.43,,
PPYSRLSPRDEYKPLDLSDSTLSY [SMAD6],3.89 ± 0.18,3.84 ± 0.24,,
PAVEACENRRKVLYQRAPRNIHRH [TCF25],3.88 ± 0.23,3.81 ± 0.15,,
RTSCSSRPCVPPSCHGYTLPGACN [KRT33B],2.67 ± 0.3,2.56 ± 0.17,,
SLVTVGKHLTARVLCLIVLPLALY [POMT2],2.63 ± 0.58,2.58 ± 0.33,,
SKIFTTLDPASLAWLTEEEPEPAE [DDIT3],5.14 ± 0.54,5.11 ± 0.27,,
DRRKKIARMGFNASSMLRKSQLGF [DCAF4],2.67 ± 0.34,2.84 ± 0.13,,
VCVFLSHGEGNHIYAYDAKIEIQT [CASP6],3.11 ± 0.26,2.75 ± 0.64,,
MLATRNFSGGKSGGNKKSDGVKES [CAMK2A],4.51 ± 0.7,4.54 ± 0.12,,
EMSLAEELNHGRQGENQEHLVIAE [FATE1],5.44 ± 0.12,5.2 ± 0.24,,

Sequence,protein stability index [1],protein stability index [2],"protein stability index (treatment: DMSO, c terminus: native)","protein stability index (treatment: MLN4924 1 uM, 8 h, c terminus: native)"
QAKEELARMLREYQELMSLKLALD [KRT71],2.61 ± 0.37,2.77 ± 0.47,,
AEKNCMTFFEVSPLCNFNVIESFT [RAB40C],2.3 ± 0.64,2.02 ± 0.24,,
QTRRASALIDRPAPYFERSSSKRY [EPB41L3],4.18 ± 0.24,4.17 ± 0.3,,
LRQKGNRNTHKDLLRFAQVFSQMI [FEM1B],2.38 ± 0.56,2.26 ± 0.32,,
SHHLAVYNSPQFKKTMSTFHNLVS [FBXO39],2.25 ± 0.28,2.31 ± 0.1,,
MEEGERSPLLSQETAGQKPLSVHR [TSPAN10],5.08 ± 0.11,5.02 ± 0.18,,
YTSSLACHRALQDAFSGLFWQPS [MNAT1],,,2.29 ± 0.51,2.01 ± 0.33
PFTVSPNTHVSQVFNLFRTMGLRH [CLCN6],2.39 ± 0.45,2.45 ± 0.38,,
LNERKQASAIKKEELVARSETHAA [CHGB],5.48 ± 0.22,5 ± 0.23,,
FAQPMMRPPFGAAAVPGTQLSPSP [SNAP91],3.43 ± 0.31,3.71 ± 0.35,,
LESTLAETEARYSSQLAQMQCLIS [KRT36],3.08 ± 0.17,3.18 ± 0.32,,
VVGGAMFFIGFTALVIMWQKHYVY [COX4I1],3.11 ± 0.29,3.24 ± 0.49,,
TDIELEIYGMEGIPEKDMDERRRL [ZNF207],4.77 ± 0.097,4.86 ± 0.22,,
SNWFVWVTQMNHIPMHIDHDRNMD [FADS1],2.09 ± 0.45,2.19 ± 0.13,,
TPSPADAKAPPTACYAGAAPAPSQ [CEBPB],4.75 ± 0.38,4.75 ± 0.27,,
GRCELARVLHDFGLDGYRGYSLAD [SPACA3],2.62 ± 0.13,2.35 ± 0.32,,
PGAHGRFMPQGAGGHTREARIQTL [RSAD1],3.63 ± 0.35,3.67 ± 0.29,,
TRQLHEKTSQLSYYYMGFYIHSCP [ATE1],2.83 ± 0.71,2.54 ± 0.41,,
WLLNNLMTHQNVELFKELSINVMK [GMCL1],2.28 ± 0.54,2.08 ± 0.3,,
HVRQGVFSSLNHIVEKRVLAHLAP [INTS3],2.32 ± 0.21,2.41 ± 0.12,,
SDPCGQLRPTLLLTSLHHFMHSRN [PNLIPRP1],2.3 ± 0.35,2.6 ± 0.24,,
RTVKLIRYVSNWDFFIVGCEVIFC [PKD2L1],2.79 ± 0.56,2.58 ± 0.47,,
